Test results published in patent US20260001928A1 (CORTERIA PHARMACEUTICALS, priority 2022, published 2026).
*1 amine or outer side, *2 acyl side, *3 side chain or, on linkers, in order; H or OH if unused. Side-chain parts run from the residue outwards. [ ]: non-standard residue; d: D form. The star is where a group is joined. C16 diacid = O=C(O)CCCCCCCCCCCCCCC(=O)*; γGlu = O=C(O)[C@H](CCC(=O)[*:2])N[*:1]; Pentanoyl = CCCCC(=O)*; Aib = CC(C)(N)C(=O)O

T1: CRF1R receptor (UniProt P34998 24-415, limits assumed)
T1 sequence (looked up): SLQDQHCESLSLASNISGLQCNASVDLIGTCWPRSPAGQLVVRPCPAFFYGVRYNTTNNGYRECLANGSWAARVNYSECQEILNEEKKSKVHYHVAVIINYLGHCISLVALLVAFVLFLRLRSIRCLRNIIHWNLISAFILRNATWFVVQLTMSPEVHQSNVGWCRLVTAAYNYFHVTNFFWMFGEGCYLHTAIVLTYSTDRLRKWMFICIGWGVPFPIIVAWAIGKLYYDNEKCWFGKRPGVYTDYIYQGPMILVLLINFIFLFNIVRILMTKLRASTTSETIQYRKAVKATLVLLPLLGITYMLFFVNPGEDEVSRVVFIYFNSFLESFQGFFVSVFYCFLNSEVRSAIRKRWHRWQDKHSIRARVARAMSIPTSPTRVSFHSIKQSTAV


Key:
CRF1R receptor = target: T1, CRF1R receptor; assay: cell-based or functional assay
[1] = target: human corticotropin-releasing factor 2a (CRF2a receptor) (human), Q13324; assay: cell-based or functional assay
Sequence of human corticotropin-releasing factor 2a (CRF2a receptor) (human), Q13324 (Q13324 20-411): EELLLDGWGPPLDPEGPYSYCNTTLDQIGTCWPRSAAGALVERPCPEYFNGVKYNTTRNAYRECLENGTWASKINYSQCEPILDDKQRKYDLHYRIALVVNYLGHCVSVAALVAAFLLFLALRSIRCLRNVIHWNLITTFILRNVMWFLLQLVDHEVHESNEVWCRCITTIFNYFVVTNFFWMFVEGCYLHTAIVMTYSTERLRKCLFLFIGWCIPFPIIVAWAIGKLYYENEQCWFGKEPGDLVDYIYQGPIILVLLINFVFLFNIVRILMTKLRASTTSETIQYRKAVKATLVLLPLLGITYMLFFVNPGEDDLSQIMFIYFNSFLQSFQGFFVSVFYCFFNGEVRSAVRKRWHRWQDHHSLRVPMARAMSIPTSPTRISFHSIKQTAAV

| Emax (% I) (CRF1R receptor) | EC50 [nM] (cAMP) [1] | EC50 (CRF1R receptor) | Binder |
| --- | --- | --- | --- |
| 3% | 0.8 nM | – | Ac-IVLSLD[dV]PIKLK([γGlu-C16 diacid])KILLEQEKQKEQREQAETN[Aib]QILAQV-NH2 (SMILES CC[C@H](C)[C@H](NC(C)=O)C(=O)N[C@H](C(=O)N[C@@H](CC(C)C)C(=O)N[C@@H](CO)C(=O)N[C@@H](CC(C)C)C(=O)N[C@@H](CC(=O)O)C(=O)N[C@@H](C(=O)N1CCC[C@H]1C(=O)N[C@H](C(=O)N[C@@H](CCCCN)C(=O)N[C@@H](CC(C)C)C(=O)N[C@@H](CCCCNC(=O)CC[C@H](NC(=O)CCCCCCCCCCCCCCC(=O)O)C(=O)O)C(=O)N[C@@H](CCCCN)C(=O)N[C@H](C(=O)N[C@@H](CC(C)C)C(=O)N[C@@H](CC(C)C)C(=O)N[C@@H](CCC(=O)O)C(=O)N[C@@H](CCC(N)=O)C(=O)N[C@@H](CCC(=O)O)C(=O)N[C@@H](CCCCN)C(=O)N[C@@H](CCC(N)=O)C(=O)N[C@@H](CCCCN)C(=O)N[C@@H](CCC(=O)O)C(=O)N[C@@H](CCC(N)=O)C(=O)N[C@@H](CCCNC(=N)N)C(=O)N[C@@H](CCC(=O)O)C(=O)N[C@@H](CCC(N)=O)C(=O)N[C@@H](C)C(=O)N[C@@H](CCC(=O)O)C(=O)N[C@H](C(=O)N[C@@H](CC(N)=O)C(=O)NC(C)(C)C(=O)N[C@@H](CCC(N)=O)C(=O)N[C@H](C(=O)N[C@@H](CC(C)C)C(=O)N[C@@H](C)C(=O)N[C@@H](CCC(N)=O)C(=O)N[C@H](C(N)=O)C(C)C)[C@@H](C)CC)[C@@H](C)O)[C@@H](C)CC)[C@@H](C)CC)C(C)C)C(C)C) [SEQ ID NO 168] |
| 14% | 0.64 nM | – | Ac-IVLSLD[dV]PIKLK([γGlu-C16 diacid])KILLEQEAQKKQREQAETN[Aib]QILAQV-NH2 (SMILES CC[C@H](C)[C@H](NC(C)=O)C(=O)N[C@H](C(=O)N[C@@H](CC(C)C)C(=O)N[C@@H](CO)C(=O)N[C@@H](CC(C)C)C(=O)N[C@@H](CC(=O)O)C(=O)N[C@@H](C(=O)N1CCC[C@H]1C(=O)N[C@H](C(=O)N[C@@H](CCCCN)C(=O)N[C@@H](CC(C)C)C(=O)N[C@@H](CCCCNC(=O)CC[C@H](NC(=O)CCCCCCCCCCCCCCC(=O)O)C(=O)O)C(=O)N[C@@H](CCCCN)C(=O)N[C@H](C(=O)N[C@@H](CC(C)C)C(=O)N[C@@H](CC(C)C)C(=O)N[C@@H](CCC(=O)O)C(=O)N[C@@H](CCC(N)=O)C(=O)N[C@@H](CCC(=O)O)C(=O)N[C@@H](C)C(=O)N[C@@H](CCC(N)=O)C(=O)N[C@@H](CCCCN)C(=O)N[C@@H](CCCCN)C(=O)N[C@@H](CCC(N)=O)C(=O)N[C@@H](CCCNC(=N)N)C(=O)N[C@@H](CCC(=O)O)C(=O)N[C@@H](CCC(N)=O)C(=O)N[C@@H](C)C(=O)N[C@@H](CCC(=O)O)C(=O)N[C@H](C(=O)N[C@@H](CC(N)=O)C(=O)NC(C)(C)C(=O)N[C@@H](CCC(N)=O)C(=O)N[C@H](C(=O)N[C@@H](CC(C)C)C(=O)N[C@@H](C)C(=O)N[C@@H](CCC(N)=O)C(=O)N[C@H](C(N)=O)C(C)C)[C@@H](C)CC)[C@@H](C)O)[C@@H](C)CC)[C@@H](C)CC)C(C)C)C(C)C) [SEQ ID NO 165] |
| 7% | 1.15 nM | – | Ac-IVLSLD[dV]PIKLK([γGlu-C16 diacid])KILLEQEKQKKQAEQAETN[Aib]QILAQV-NH2 (SMILES CC[C@H](C)[C@H](NC(C)=O)C(=O)N[C@H](C(=O)N[C@@H](CC(C)C)C(=O)N[C@@H](CO)C(=O)N[C@@H](CC(C)C)C(=O)N[C@@H](CC(=O)O)C(=O)N[C@@H](C(=O)N1CCC[C@H]1C(=O)N[C@H](C(=O)N[C@@H](CCCCN)C(=O)N[C@@H](CC(C)C)C(=O)N[C@@H](CCCCNC(=O)CC[C@H](NC(=O)CCCCCCCCCCCCCCC(=O)O)C(=O)O)C(=O)N[C@@H](CCCCN)C(=O)N[C@H](C(=O)N[C@@H](CC(C)C)C(=O)N[C@@H](CC(C)C)C(=O)N[C@@H](CCC(=O)O)C(=O)N[C@@H](CCC(N)=O)C(=O)N[C@@H](CCC(=O)O)C(=O)N[C@@H](CCCCN)C(=O)N[C@@H](CCC(N)=O)C(=O)N[C@@H](CCCCN)C(=O)N[C@@H](CCCCN)C(=O)N[C@@H](CCC(N)=O)C(=O)N[C@@H](C)C(=O)N[C@@H](CCC(=O)O)C(=O)N[C@@H](CCC(N)=O)C(=O)N[C@@H](C)C(=O)N[C@@H](CCC(=O)O)C(=O)N[C@H](C(=O)N[C@@H](CC(N)=O)C(=O)NC(C)(C)C(=O)N[C@@H](CCC(N)=O)C(=O)N[C@H](C(=O)N[C@@H](CC(C)C)C(=O)N[C@@H](C)C(=O)N[C@@H](CCC(N)=O)C(=O)N[C@H](C(N)=O)C(C)C)[C@@H](C)CC)[C@@H](C)O)[C@@H](C)CC)[C@@H](C)CC)C(C)C)C(C)C) [SEQ ID NO 167] |
| 14% | 2.43 nM | – | Ac-IVLSLD[dV]PIKLK([γGlu-C16 diacid])AILLEQEKQKKQREQAETN[Aib]QILAQV-NH2 (SMILES CC[C@H](C)[C@H](NC(C)=O)C(=O)N[C@H](C(=O)N[C@@H](CC(C)C)C(=O)N[C@@H](CO)C(=O)N[C@@H](CC(C)C)C(=O)N[C@@H](CC(=O)O)C(=O)N[C@@H](C(=O)N1CCC[C@H]1C(=O)N[C@H](C(=O)N[C@@H](CCCCN)C(=O)N[C@@H](CC(C)C)C(=O)N[C@@H](CCCCNC(=O)CC[C@H](NC(=O)CCCCCCCCCCCCCCC(=O)O)C(=O)O)C(=O)N[C@@H](C)C(=O)N[C@H](C(=O)N[C@@H](CC(C)C)C(=O)N[C@@H](CC(C)C)C(=O)N[C@@H](CCC(=O)O)C(=O)N[C@@H](CCC(N)=O)C(=O)N[C@@H](CCC(=O)O)C(=O)N[C@@H](CCCCN)C(=O)N[C@@H](CCC(N)=O)C(=O)N[C@@H](CCCCN)C(=O)N[C@@H](CCCCN)C(=O)N[C@@H](CCC(N)=O)C(=O)N[C@@H](CCCNC(=N)N)C(=O)N[C@@H](CCC(=O)O)C(=O)N[C@@H](CCC(N)=O)C(=O)N[C@@H](C)C(=O)N[C@@H](CCC(=O)O)C(=O)N[C@H](C(=O)N[C@@H](CC(N)=O)C(=O)NC(C)(C)C(=O)N[C@@H](CCC(N)=O)C(=O)N[C@H](C(=O)N[C@@H](CC(C)C)C(=O)N[C@@H](C)C(=O)N[C@@H](CCC(N)=O)C(=O)N[C@H](C(N)=O)C(C)C)[C@@H](C)CC)[C@@H](C)O)[C@@H](C)CC)[C@@H](C)CC)C(C)C)C(C)C) [SEQ ID NO 164] |
| 5% | 0.77 nM | – | Ac-IVLSLD[dV]PIKLK([γGlu-C16 diacid])KILLEQEKQAKQREQAETN[Aib]QILAQV-NH2 (SMILES CC[C@H](C)[C@H](NC(C)=O)C(=O)N[C@H](C(=O)N[C@@H](CC(C)C)C(=O)N[C@@H](CO)C(=O)N[C@@H](CC(C)C)C(=O)N[C@@H](CC(=O)O)C(=O)N[C@@H](C(=O)N1CCC[C@H]1C(=O)N[C@H](C(=O)N[C@@H](CCCCN)C(=O)N[C@@H](CC(C)C)C(=O)N[C@@H](CCCCNC(=O)CC[C@H](NC(=O)CCCCCCCCCCCCCCC(=O)O)C(=O)O)C(=O)N[C@@H](CCCCN)C(=O)N[C@H](C(=O)N[C@@H](CC(C)C)C(=O)N[C@@H](CC(C)C)C(=O)N[C@@H](CCC(=O)O)C(=O)N[C@@H](CCC(N)=O)C(=O)N[C@@H](CCC(=O)O)C(=O)N[C@@H](CCCCN)C(=O)N[C@@H](CCC(N)=O)C(=O)N[C@@H](C)C(=O)N[C@@H](CCCCN)C(=O)N[C@@H](CCC(N)=O)C(=O)N[C@@H](CCCNC(=N)N)C(=O)N[C@@H](CCC(=O)O)C(=O)N[C@@H](CCC(N)=O)C(=O)N[C@@H](C)C(=O)N[C@@H](CCC(=O)O)C(=O)N[C@H](C(=O)N[C@@H](CC(N)=O)C(=O)NC(C)(C)C(=O)N[C@@H](CCC(N)=O)C(=O)N[C@H](C(=O)N[C@@H](CC(C)C)C(=O)N[C@@H](C)C(=O)N[C@@H](CCC(N)=O)C(=O)N[C@H](C(N)=O)C(C)C)[C@@H](C)CC)[C@@H](C)O)[C@@H](C)CC)[C@@H](C)CC)C(C)C)C(C)C) [SEQ ID NO 166] |
| 50% | 0.14 nM | 186 nM | Pentanoyl-VLSLD[dV]PIKLK([γGlu-C16 diacid])QILLKQERQKKQREQAEKNKQILEQV-NH2 (SMILES CCCCC(=O)N[C@H](C(=O)N[C@@H](CC(C)C)C(=O)N[C@@H](CO)C(=O)N[C@@H](CC(C)C)C(=O)N[C@@H](CC(=O)O)C(=O)N[C@@H](C(=O)N1CCC[C@H]1C(=O)N[C@H](C(=O)N[C@@H](CCCCN)C(=O)N[C@@H](CC(C)C)C(=O)N[C@@H](CCCCNC(=O)CC[C@H](NC(=O)CCCCCCCCCCCCCCC(=O)O)C(=O)O)C(=O)N[C@@H](CCC(N)=O)C(=O)N[C@H](C(=O)N[C@@H](CC(C)C)C(=O)N[C@@H](CC(C)C)C(=O)N[C@@H](CCCCN)C(=O)N[C@@H](CCC(N)=O)C(=O)N[C@@H](CCC(=O)O)C(=O)N[C@@H](CCCNC(=N)N)C(=O)N[C@@H](CCC(N)=O)C(=O)N[C@@H](CCCCN)C(=O)N[C@@H](CCCCN)C(=O)N[C@@H](CCC(N)=O)C(=O)N[C@@H](CCCNC(=N)N)C(=O)N[C@@H](CCC(=O)O)C(=O)N[C@@H](CCC(N)=O)C(=O)N[C@@H](C)C(=O)N[C@@H](CCC(=O)O)C(=O)N[C@@H](CCCCN)C(=O)N[C@@H](CC(N)=O)C(=O)N[C@@H](CCCCN)C(=O)N[C@@H](CCC(N)=O)C(=O)N[C@H](C(=O)N[C@@H](CC(C)C)C(=O)N[C@@H](CCC(=O)O)C(=O)N[C@@H](CCC(N)=O)C(=O)N[C@H](C(N)=O)C(C)C)[C@@H](C)CC)[C@@H](C)CC)[C@@H](C)CC)C(C)C)C(C)C) [SEQ ID NO 8] |
